Substrate: NCCc1c[nH]cn1
Conditions: Saccharomyces cerevisiae
Description: Activity at yeast recombinant CA expressed in Escherichia coli

B1: Carbonic anhydrase (Saccharomyces cerevisiae S288c), P53615 (protein)
chain: MSATESSSIFTLSHNSNLQDILAANAKWASQMNNIQPTLFPDHNAKGQSPHTLFIGCSDSRYNENCLGVLPGEVFTWKNVANICHSEDLTLKATLEFAIICLKVNKVIICGHTDCGGIKTCLTNQREALPKVNCSHLYKYLDDIDTMYHEESQNLIHLKTQREKSHYLSHCNVKRQFNRIIENPTVQTAVQNGELQVYGLLYNVEDGLLQTVSTYTKVTPK
  kcat: 19.6 ×10⁵ /s

Reference: ChEMBL document CHEMBL1153299, “Carbonic anhydrase activators: activation of the beta-carbonic anhydrase Nce103 from the yeast Saccharomyces cerevisiae with amines and amino acids” (Bioorg Med Chem Lett, 2009)
